In data set [1] the target is T1, Escherichia coli UvrB protein.
T1 chain: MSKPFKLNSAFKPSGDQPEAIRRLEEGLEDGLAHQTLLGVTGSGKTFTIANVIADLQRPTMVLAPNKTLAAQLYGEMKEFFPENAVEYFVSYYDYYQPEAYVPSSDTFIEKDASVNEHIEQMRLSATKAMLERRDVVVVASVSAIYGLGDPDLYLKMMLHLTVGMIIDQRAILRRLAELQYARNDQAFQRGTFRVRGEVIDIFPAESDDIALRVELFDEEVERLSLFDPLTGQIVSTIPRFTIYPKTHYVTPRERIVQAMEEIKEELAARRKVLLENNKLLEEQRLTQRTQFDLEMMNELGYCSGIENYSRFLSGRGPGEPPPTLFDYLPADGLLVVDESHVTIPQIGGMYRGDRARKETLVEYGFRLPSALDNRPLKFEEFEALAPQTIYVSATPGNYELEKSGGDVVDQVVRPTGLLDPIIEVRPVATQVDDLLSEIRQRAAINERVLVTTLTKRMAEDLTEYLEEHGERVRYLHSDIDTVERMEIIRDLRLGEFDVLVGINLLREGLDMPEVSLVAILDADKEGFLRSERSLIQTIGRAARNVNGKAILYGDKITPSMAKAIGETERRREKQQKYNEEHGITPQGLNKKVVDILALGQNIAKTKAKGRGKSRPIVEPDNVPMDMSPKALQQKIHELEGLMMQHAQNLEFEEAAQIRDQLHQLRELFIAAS

Data set [2] deals with T2, Bacillus caldotenax (Bca) UvrA protein.
T2 chain: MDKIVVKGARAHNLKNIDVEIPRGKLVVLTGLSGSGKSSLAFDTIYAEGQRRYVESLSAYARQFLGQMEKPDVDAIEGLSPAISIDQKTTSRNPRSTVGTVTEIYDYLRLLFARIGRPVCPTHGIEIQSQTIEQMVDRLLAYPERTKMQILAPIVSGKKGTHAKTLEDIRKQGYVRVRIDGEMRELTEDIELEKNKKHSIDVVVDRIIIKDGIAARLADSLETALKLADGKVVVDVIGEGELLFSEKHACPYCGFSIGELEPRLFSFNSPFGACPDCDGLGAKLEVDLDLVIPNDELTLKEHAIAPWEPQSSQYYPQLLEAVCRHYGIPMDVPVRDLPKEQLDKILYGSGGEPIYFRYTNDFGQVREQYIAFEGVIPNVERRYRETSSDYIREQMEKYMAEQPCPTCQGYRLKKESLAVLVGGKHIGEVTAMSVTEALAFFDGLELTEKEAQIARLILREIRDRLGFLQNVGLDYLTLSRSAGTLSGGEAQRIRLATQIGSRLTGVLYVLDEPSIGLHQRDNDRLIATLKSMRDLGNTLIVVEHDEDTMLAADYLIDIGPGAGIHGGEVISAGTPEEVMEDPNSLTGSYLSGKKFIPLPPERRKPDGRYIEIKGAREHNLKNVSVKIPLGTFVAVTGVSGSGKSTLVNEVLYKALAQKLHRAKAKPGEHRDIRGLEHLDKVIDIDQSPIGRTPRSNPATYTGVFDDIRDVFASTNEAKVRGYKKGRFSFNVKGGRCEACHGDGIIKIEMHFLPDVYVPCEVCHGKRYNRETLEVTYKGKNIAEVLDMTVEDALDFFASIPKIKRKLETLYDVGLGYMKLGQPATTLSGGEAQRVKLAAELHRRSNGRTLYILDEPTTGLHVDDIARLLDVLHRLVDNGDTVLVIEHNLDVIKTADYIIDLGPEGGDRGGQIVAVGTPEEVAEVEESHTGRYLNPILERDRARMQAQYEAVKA

B1: Bacillus caldotenax (Bca) UvrA protein (protein)
chain: MDKIVVKGARAHNLKNIDVEIPRGKLVVLTGLSGSGKSSLAFDTIYAEGQRRYVESLSAYARQFLGQMEKPDVDAIEGLSPAISIDQKTTSRNPRSTVGTVTEIYDYLRLLFARIGRPVCPTHGIEIQSQTIEQMVDRLLAYPERTKMQILAPIVSGKKGTHAKTLEDIRKQGYVRVRIDGEMRELTEDIELEKNKKHSIDVVVDRIIIKDGIAARLADSLETALKLADGKVVVDVIGEGELLFSEKHACPYCGFSIGELEPRLFSFNSPFGACPDCDGLGAKLEVDLDLVIPNDELTLKEHAIAPWEPQSSQYYPQLLEAVCRHYGIPMDVPVRDLPKEQLDKILYGSGGEPIYFRYTNDFGQVREQYIAFEGVIPNVERRYRETSSDYIREQMEKYMAEQPCPTCQGYRLKKESLAVLVGGKHIGEVTAMSVTEALAFFDGLELTEKEAQIARLILREIRDRLGFLQNVGLDYLTLSRSAGTLSGGEAQRIRLATQIGSRLTGVLYVLDEPSIGLHQRDNDRLIATLKSMRDLGNTLIVVEHDEDTMLAADYLIDIGPGAGIHGGEVISAGTPEEVMEDPNSLTGSYLSGKKFIPLPPERRKPDGRYIEIKGAREHNLKNVSVKIPLGTFVAVTGVSGSGKSTLVNEVLYKALAQKLHRAKAKPGEHRDIRGLEHLDKVIDIDQSPIGRTPRSNPATYTGVFDDIRDVFASTNEAKVRGYKKGRFSFNVKGGRCEACHGDGIIKIEMHFLPDVYVPCEVCHGKRYNRETLEVTYKGKNIAEVLDMTVEDALDFFASIPKIKRKLETLYDVGLGYMKLGQPATTLSGGEAQRVKLAAELHRRSNGRTLYILDEPTTGLHVDDIARLLDVLHRLVDNGDTVLVIEHNLDVIKTADYIIDLGPEGGDRGGQIVAVGTPEEVAEVEESHTGRYLNPILERDRARMQAQYEAVKA
For B1, in data set [1], the “DNA substrate bound in the form of UvrB-DNA complex (gel mobility shift, Eco UvrB at 100 nM)” value is “more than 50% of the DNA substrate bound in the form of UvrB-DNA complex” and the “DNA substrate bound in the form of UvrB-DNA complex (gel mobility shift, Eco UvrB at 250 nM)” value is “all the BPDE-containing substrate is bound as the UvrB-DNA complex”.

B2: β-hairpin deletion mutant of the B. caldotenax UvrB protein (Δβh UvrB) (protein)
chain: VEGRFQLVAPYEPQGDQPQAIAKLVDGLRRGVKHQTLLGATGTGKTFTISNVIAQVNKPTLVIAHNKTLAGQLYSELKEFFPHNAVEYFVSYYDYYGAKINDEIDKLRHSATSALFERRDVIIVASVSCIYGLGSPEEYRELVVSLRVGMEIERNALLRRLVDIQYDRNDIDFRRGTFRVRGDVVEIFPASRDEHCIRVEFFGDEIERIREVDALTGEVLGEREHVAIFPASHFVTREEKMRLAIQNIEQELEERLAELRAQGKLLEAQRLEQRTRYDLEMMREMGFCSGIENYSRHLALRPPGSTPYTLLDYFPDDFLIIVDESHVTLPQLRGMYNGDRARKQVLVDHGFRLPSALDNRPLTFEEFEQKINQIIYVSATPGPYELEHSPGVVEQIIRPTGLLDPTIDVRPTKGQIDDLIGEIRERVERNERTLVTTLTKKMAEDLTDYLKEAGIKVAYLHSEIKTLERIEIIRDLRLGKYDVLVGINLLREGLDIPEVSLVAILDADKEGFLRSERSLIQTIGRAARNANGHVIMYADTITKSMEIAIQETKRRRAIQEEYNRKHGIVPRTVKKEIRDVIRATYAAEETEMYEAKPAAAMTKQEREELIRTLEAEMKEAAKALDFERAAQLRDIIFELKAEG
On to B2, for which, in data set [2], the ATPase activity (UvrA + Δβh UvrB + UV-DNA) (mol of ATP hydrolyzed/mol of protein/min) turned out to be 29 and the ATPase activity (UvrA + Δβh UvrB) (mol of ATP hydrolyzed/mol of protein/min) was determined as 19.

B3: Bacillus caldotenax (Bca) UvrB protein, wild type (protein)
chain: VEGRFQLVAPYEPQGDQPQAIAKLVDGLRRGVKHQTLLGATGTGKTFTISNVIAQVNKPTLVIAHNKTLAGQLYSELKEFFPHNAVEYFVSYYDYYQPEAYVPQTDTYIEKDAKINDEIDKLRHSATSALFERRDVIIVASVSCIYGLGSPEEYRELVVSLRVGMEIERNALLRRLVDIQYDRNDIDFRRGTFRVRGDVVEIFPASRDEHCIRVEFFGDEIERIREVDALTGEVLGEREHVAIFPASHFVTREEKMRLAIQNIEQELEERLAELRAQGKLLEAQRLEQRTRYDLEMMREMGFCSGIENYSRHLALRPPGSTPYTLLDYFPDDFLIIVDESHVTLPQLRGMYNGDRARKQVLVDHGFRLPSALDNRPLTFEEFEQKINQIIYVSATPGPYELEHSPGVVEQIIRPTGLLDPTIDVRPTKGQIDDLIGEIRERVERNERTLVTTLTKKMAEDLTDYLKEAGIKVAYLHSEIKTLERIEIIRDLRLGKYDVLVGINLLREGLDIPEVSLVAILDADKEGFLRSERSLIQTIGRAARNANGHVIMYADTITKSMEIAIQETKRRRAIQEEYNRKHGIVPRTVKKEIRDVIRATYAAEETEMYEAKPAAAMTKQEREELIRTLEAEMKEAAKALDFERAAQLRDIIFELKAEG
For B3, in data set [2], the ATPase activity (UvrA + UvrB + UV-DNA) (mol of ATP hydrolyzed/mol of protein/min) stood at 22 and the ATPase activity (UvrA + UvrB) (mol of ATP hydrolyzed/mol of protein/min) is 18.3.
